Substrate in this data set: O=CC(O)COP(=O)(O)O
The experiment in a line: Michaelis-Menten kinetics of purified enzyme (Km), coupled alpha-GDH/NADH assay. The class given is biochemical, Giardia duodenalis.

B1: Giardia lamblia triosephosphate isomerase (GlTIM WT) (Giardia duodenalis) (protein)
chain: MPARRPFIGGNFKCNGSLDFIKSHVAAIAAHKIPDSVDVVIAPSAVHLSTAIAANTSKQLRIAAQNVYLEGNGAWTGETSVEMLQDMGLKHVIVGHSERRRIMGETDEQSAKKAKRALEKGMTVIFCVGETLDERKANRTMEVNIAQLEALGKELGESKMLWKEVVIAYEPVWSIGTGVVATPEQAEEVHVGLRKWFAEKVCAEGAQHIRIIYGGSANGSNCEKLGQCPNIDGFLVGGASLKPEFMTMIDILTKTRT
notes: recombinant His-tag/TEV GlTIM WT
Take B1: the Km (in general, the concentration of substrate that gives half-maximal velocity) came to 780 ± 60 µM; the kcat – broadly, the maximal rate divided by the concentration of active sites – came to 7670 ± 267 s⁻¹; the kcat/Km (in general, the second-order rate constant that governs catalysis at low substrate concentration) was determined as 9.83e+06 M⁻¹ s⁻¹.

For the origin of these results see paper PMC6586891, “On the molecular and cellular effects of omeprazole to further support its effectiveness as an antigiardial drug” (Scientific Reports, 2019).
